According to the supplement of paper PMC10899765:

Key:
Conditions in all cases: 20 nM; 72 h
[1] = test system: MCF10A; assay: 5+ nucleoli phenotype percent effect (relative to siNT 0% and siKIF11 100%); higher = more cells with five or more nucleoli
Method: (§1)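 After 72 h, cells were fixed and stained with Hoechst and anti-fibrillarin, and nucleoli per nucleus were counted with CellProfiler. Values are plate-adjusted percent effect for the one-nucleolus and 5+ nucleoli phenotypes, normalised to siNT (0%) and to the positive controls siNOL11 or siKIF11 (100%), as the mean of biological triplicates. Percent viability is the nuclei count relative to siNT.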

[2] = test system: MCF10A; assay: one-nucleolus phenotype percent effect (relative to siNT 0% and siNOL11 100%); higher = more cells with one nucleolus (ribosome biogenesis inhibition)
Method: as §1

[3] = test system: MCF10A; assay: percent viability (nuclei count relative to siNT); higher = more viable cells
Method: as §1

| Sequence | 5+ nucleoli phenotype percent effect [1] [%] | one-nucleolus phenotype percent effect [2] [%] | percent viability [3] [%] |
| --- | --- | --- | --- |
| AUGAGCGACUGUGCCUGACC [hsa-miR-5708] | -33 | 21.4 | 47.3 |
| ACUGGCCUGGGACUACCGG [hsa-miR-3176] | 35.3 | -13.2 | 54.4 |
| CCGUGUUUCCCCCACGCUUU [hsa-miR-3676-3p] | -17.2 | 4.15 | 72.3 |
| CUCGUGGGCUCUGGCCACGGCC [hsa-miR-3677-3p] | -9.65 | -2.83 | 56.2 |
| CUCGGGGCAGGCGGCUGGGAGCG [hsa-miR-6727-5p] | 19.5 | -15.9 | 74.2 |
| CGAGGGGUAGAAGAGCACAGGGG [hsa-miR-6738-5p] | 26.9 | -8.33 | 75.7 |
| UCCUUCAUUCCACCGGAGUCUG [hsa-miR-205-5p] | -17.6 | 21 | 67.4 |
| GGAGGCGCAGGCUCGGAAAGGCG [hsa-miR-3197] | 13.6 | -2.74 | 41.9 |
| UGUGACUGGUUGACCAGAGGGG [hsa-miR-134] | -26.5 | 31.9 | 28 |
| GCGAGGACCCCUCGGGGUCUGAC [hsa-miR-611] | 45.7 | -31.1 | 121 |
| UCCCUGAGACCCUUUAACCUGUGA [hsa-miR-125a-5p] | 28.8 | -18.8 | 117 |
| AGCUGUCUGUGUUUUCCUUCUCAG [hsa-miR-6876-3p] | -19.1 | 6.32 | 58.5 |
| AUCGGGCCCUCGGCGCCGG [hsa-miR-3181] | -23.1 | 8.67 | 31.6 |
| UGAGGUAGUAGUUUCUU [hsa-miR-4500] | 43.2 | -31.4 | 89.3 |
| UGGGGGAGAUGGGGGUUGA [hsa-miR-6870-5p] | -6.86 | 15.2 | 32.7 |
| GUGAACGGGCGCCAUCCCGAGG [hsa-miR-887] | -3.19 | -1.47 | 73.2 |
| AUGGAAUGUAUAUACGGAAUA [hsa-miR-3673] | -48.6 | 63.4 | 35.7 |
| UCGACAGCACGACACUGCCUUC [hsa-miR-196b-3p] | 5.68 | 2.46 | 65.2 |
| UUCGCGGGCGAAGGCAAAGUC [hsa-miR-3124-5p] | 18.7 | 3.56 | 32.5 |
| AAGCCCUGUCUCCUCCCAUCU [hsa-miR-6779-3p] | -41.9 | 9.83 | 68.1 |
| GUUCUGUUAACCCAUCCCCUCA [hsa-miR-4652-3p] | -42.7 | 16 | 28.2 |
| ACCUGGCAUACAAUGUAGAUUU [hsa-miR-221-5p] | -26.8 | 62.6 | 36 |
| AAGUGCCCCCACAGUUUGAGUGC [hsa-miR-371b-3p] | 68.5 | -25.4 | 84.2 |
| GGCGGCGGGGAGGUAGGCAG [hsa-miR-8072] | -2.29 | -6.87 | 49.8 |

| Sequence | 5+ nucleoli phenotype percent effect [1] [%] | one-nucleolus phenotype percent effect [2] [%] | percent viability [3] [%] |
| --- | --- | --- | --- |
| CCUCCAAAGGGAAGCGCUUUCUGUU [hsa-miR-519d-5p] | 21.8 | -10.6 | 65.3 |
| GUGGAGUCCUGGGGAAUGGAGA [hsa-miR-3198] | -28.7 | 22 | 25.5 |
| GCCUAUCACAUAUCUGCCUGU [hsa-miR-3927-5p] | 67.2 | -27.5 | 73.9 |
| AUGGUCACCUCCGGGACU [hsa-miR-5587-5p] | 41.6 | -15.8 | 60.6 |
| GAGAGGAACAUGGGCUCAGGACA [hsa-miR-6859-5p] | 41.6 | -24.3 | 75.5 |
| AGGUUGUCCGUGUUGUCUUCUCU [hsa-miR-494-5p] | 18.5 | 3.91 | 22.3 |
| AUGAUCCAGGAACCUGCCUCU [hsa-miR-640] | -28.9 | 28.8 | 32.2 |
| UACACAAGAAAACCAAGGCUCA [hsa-miR-4801] | 20.3 | -13.4 | 82 |
| AGGUUACCCGAGCAACUUUGCAU [hsa-miR-409-5p] | -20.6 | 42.3 | 21.8 |
| GCCCGAGAGGAUCCGUCCCUGC [hsa-miR-4740-3p] | 17.8 | -18.2 | 65.9 |
| UACAGUAUAGAUGAUGUACU [hsa-miR-144-3p] | -8.45 | -2.3 | 119 |
| UCGGCCUGGGGAGGAGGAAGGG [hsa-miR-7107-5p] | 26.1 | -28.2 | 77.4 |
| CGUGGAGGACGAGGAGGAGGC [hsa-miR-7847-3p] | -7.84 | 4.16 | 67.5 |
| AAUGCACCUGGGCAAGGAUUCA [hsa-miR-502-3p] | -10.4 | 0.707 | 38.5 |
| ACAGGGAGGAGAUUGUA [hsa-miR-4441] | -15.6 | 46.5 | 18.5 |
| CAUUGCACUUGUCUCGGUCUGA [hsa-miR-25-3p] | -21.1 | 3.94 | 96.4 |
| UCGCGGUUUGUGCCAGAUGACG [hsa-miR-579-5p] | 41.8 | -22.2 | 64.6 |
| UGCAAGACGGAUACUGUCAUCU [hsa-miR-4696] | -15.7 | -7.62 | 92.5 |
| UUACACAGCUGGACAGAGGCA [hsa-miR-4672] | -34 | 38.5 | 17.6 |
| UCAGCUCCUCUCUACCCACAG [hsa-miR-6736-3p] | -12.2 | 8.25 | 37.4 |
| CUGAAGUGAUGUGUAACUGAUCAG [hsa-miR-573] | -8.65 | -6.66 | 69 |
| AAUCAUGUGCAGUGCCAAUAUG [hsa-miR-96-3p] | 24.5 | 1.6 | 28.5 |
| UGAGCCGAGCUGAGCUUAGCUG [hsa-miR-4537] | -4.47 | -6.98 | 73.5 |
| UGAUUGGUACGUCUGUGGGUAG [hsa-miR-509-3p] | -46.5 | 34 | 37.8 |
